Experimental data published in patent US12065466B2, “Methods and compositions for protein sequencing” (Quantum-Si Incorporated, priority 2020, dated 2024).

System: amino acid at a terminal position of a polypeptide
Assay: Amino acid binding preference of recognition proteins (Tables 1 and 2)
Conditions: Table 1, ClpS proteins; amino acid identity at a terminal position of a polypeptide; inferred from literature and/or demonstrated by the inventors
From the text: It should be appreciated that these sequences and other examples described herein are meant to be non-limiting, and recognition molecules in accordance with the application can include any homologs, variants thereof, or fragments thereof minimally containing domains or subdomains responsible for peptide recognition.

Molecule	Binding Pref.
PS421: ClpS protein, SEQ ID NO: 44 (protein) MTTPNKRPEFEPEIGLEDEVGEPRKYKVLLHNDDYTTMDFVVQVLIEVFRKSETEATHIMLTIHEKGVGTCGIYPAEVAETKINEVHTRARREGFPLRASMEEV	F, Y, W, L
PS408: ClpS protein, SEQ ID NO: 31 (protein) MTDPPSKGREDVDLATRTKPKTQRPPLYKVLLLNDDFTPMEFVVHILERLFGMTHAQAIEIMLTVHRKGVAVVGVFSHEIAETKVAQVMELARRQQHPLQCTMEKE	F, Y, W, L
PS425: ClpS protein, SEQ ID NO: 48 (protein) MTHYFSNILRDQESPKINPKELEQIDVLEEKEHQIILYNDDVNTFEHVIDCLVKICEHNYLQAEQCAYIVHHSGKCSVKTGSLDELVPKCNALLEEGLSAEVV	F, Y, W, L
PS412: ClpS protein, SEQ ID NO: 35 (protein) MATKREGSTLLEPTAAKVKPPPLYKVLLLNDDYTPMEFVVLVLKKFFGIDQERATQIMLKVHTEGVGVCGVYPRDIAHTKVEQVVDFARQHQHPLQCTMEES	F, Y, W, L
PS424: ClpS protein, SEQ ID NO: 47 (protein) MSVETIEKRSTTRKLAPQYRVLLHNDDYNSMEYVVQVLMTSVPSITQPQAVNIMMEAHNSGLALVITCAQEHAEFYCETLKGHGLSSTIEPD	F, Y, W
PS397: ClpS protein, SEQ ID NO: 25 (protein) MSDNEVAPKRKTRVKPKLERPRLYKVILVNDDYTPRDFVVMVLKAIFRMSEEAGYRVMMTAHKLGTSVVVVCARDIAETKAKEATDLGKEAGFPLMFTTEPEE	F, Y, W
PS369: ClpS protein, SEQ ID NO: 2 (protein) MTSTLRARPARDTDLQHRPYPHYRIIVLDDDVNTFQHVVNCLVTFLPGMTRDQAWAMAQQVDGEGSAVVWTGPQEQAELYHVQLGNHGLTMAPLEPV	F, Y, W, L
PS427: ClpS protein, SEQ ID NO: 50 (protein) MSTKEKVKERVREKEAISFNNEIIVYNDDVNTFDHVIETLIRVCNHTPEQAEQCSLIVHYNGKCTVKTGSMDKLKPQCTQLLEAGLSAEIV	F, W
PS413: ClpS protein, SEQ ID NO: 36 (protein) MMKQCGSYFLIKAVQDFKPLSKHRSDTDVITETKIQVKQPKLYTVIMYNDNYTTMDFVVYVLVEIFQHSIDKAYQLMMQIHESGQAAVALLPYDLAEMKVDEVTALAEQESYPLLTTIEPA	F, Y, W, L
PS411: ClpS protein, SEQ ID NO: 34 (protein) MTRPDAPEYDDDLAVEPAEPELARPPLYKVVLHNDDFTPMEFVVEVLQEFFNMDSEQAVQVMLAVHTQGKATCGIFTRDIAETKSYQVNEYARECEHPLMCDIEAAD	F, Y, W, L
PS406: ClpS protein, SEQ ID NO: 29 (protein) MPDATTTPRTKTLTRTARPPLHKVILVNDDFTPREFVVRLLKAEFRTTGDEAQRIMITAHMKGSCVVAVFTREIAESKATRATETARAEGFPLLFTTEPEE	F, Y, W
PS418: ClpS protein, SEQ ID NO: 41 (protein) MSDHNIDHDTSVAVHLDVVVREPPMYRVVLLNDDFTPMEFVVELLMHFFRKTAEQATQIMLNIHHEGVGVCGTYPREIAETKVAQVHQHARTNGHPLKCRMEPS	F, Y, W, L
PS417: ClpS protein, SEQ ID NO: 40 (protein) MSNLDTDVLIDEKVKVVTTEPEKYRVILLNDDVTPMDFVINILVSIFKHSTDTAKDLTLKIHKEGSAIVGVYTYEIAEQKGIEATNESRQHGFPLQVKIERENTL	F, Y, W
PS404: ClpS protein, SEQ ID NO: 27 (protein) MPVSVTAPQTKTKTKPKVERPKLYKVILVNDDFTPREFVVRVLKAEFRMSEDQAAKVMMTAHQRGVCVVAVFTRDVAETKATRATDAGRAKGYPLLFTTEPEE	F, Y, W

Next, values leading:

Binding Pref.	Molecule
F, W	PS398: ClpS protein, SEQ ID NO: 26 (protein) MPLKAQNRSIVGRRDEWPPPTTQSSSETKSESKRVSDTGADTKRKTKTVPKVEKPRLYKVILVNDDYTPREFVLVVLKAVFRMSEDQGYKVMITAHQKGSCVVAVYTRDIAETKAKEAVDLAKEIGFPLMFRTEPEE
F, Y, W, L	PS419: ClpS protein, SEQ ID NO: 42 (protein) MEKEQSLCKEKTHVELSEPKHYKVVFHNDDFTTMDFVVKVLQLVFFKSQLQAEDLTMKIHLEGSATAGIYSYDIAQSKAQKTTQMAREEGFPLRLTVEPEDN
F, Y, W, L	PS409: ClpS protein, SEQ ID NO: 32 (protein) MPARLTDIEGEPNTDPVEDVLLADPELKKPQMYAVVMYNDDYTPMEFVVDVLQNHFKHTLDSAISIMLAIHQQGKGIAGIYPKDIAETKAQTVNRKARQAGYPLLSQIEPQG
F, Y, W, L	PS414: ClpS protein, SEQ ID NO: 37 (protein) MQAAGNEPPDPQNPGDVGNGGDGGNQDGSNTGVVVKTRTRTRKPAMYKVLMLNDDYTPMEFVVHVLERFFQKNREEATRIMLHVHRRGVGVCGVYTYEVAETKVTQVMDLARQNQHPLQCTIEKE
F, Y, W, L	PS416: ClpS protein, SEQ ID NO: 39 (protein) MTSQTDTLVKPNIQPPSLFKVIYINDSVTTMEFVVESLMSVFNHSADEATRLTQLVHEEGAAVVAILPYELAEQKGMEVTLLARNNGFPLAIRLEPAV
F, Y, W, L	PS422: ClpS protein, SEQ ID NO: 45 (protein) MTQIKPQTIPDTDVISQTQSDWQMPDLYAVIMHNDDYTTMDFVVFLLNAVFDKPIEQAYQLMMQIHQTGRAVVAILPYEIAEMKVDEATSLAEQEQFPLFISIEQA
F, Y, W	PS405: ClpS protein, SEQ ID NO: 28 (protein) MVSIGAATVACAEGRPIFSGYFDWLAAMPETVTVPRTRLRPKTERPKLHKVILVNDDYTPREFVVTVLKGEFHMSEDQAQRVMITAHRRGVCVVAVFTKDVAETKATRASDAGRAKGYPLQFTTEPEE
F, Y, W, L	PS420: ClpS protein, SEQ ID NO: 43 (protein) MSDYSNQISQAGSGVAEDASITLPPERKVVFYNDDFTTMEFVVDVLVSIFNKSHSEAEELMQTVHQEGSSVVGVYTYDIAVSRTNLTIQAARKNGFPLRVEVE
F, W, L	PS410: ClpS protein, SEQ ID NO: 33 (protein) MGDDDQSSREGEGDVAFQTADPELKRPSLYRVVLLNDDYTPMEFVVHILEQFFAMNREKATQVMLAVHTQGKGVCGVYTKDIAETKAALVNDYSRENQHPLLCEVEELDDESR
F, W	PS396: ClpS protein, SEQ ID NO: 24 (protein) MSDNDVALKPKIKSKPKLERPKLYKVILVNDDFTPREFVIAVLKMVFRMSEETGYRVMLTAHRLGTSVVVVCARDIAETKAKEAVDFGKEAGFPLMFTTEPEE
F, Y, W, L	PS407: ClpS protein, SEQ ID NO: 30 (protein) MPSNKRQMCLSDIKNSFNESGIVDWHISPRLANEPSEEGDSDLAVQTVPPELKRPPLYAVVLLNDDYTPMEFVIEILQQYFAMNLDQATQVMLTVHYEGKGVAGVYPRDIAETKANQVNNYARSQGHPLLCQIEPKD
F, Y, W, L	PS426: ClpS protein, SEQ ID NO: 49 (protein) MSIIEKTQENVAILEKVSINHEIILYNDDVNTFDHVIETLIRVCNHEELQAEQCAILVHYTGKCAVKTGSFDELQPLCLALLDAGLSAEIT
F, L	PS370: ClpS protein, SEQ ID NO: 3 (protein) MFNSLGTVLDPKKSKAKYPEARVIVLDDNFNTFQHVANCLLAIIPRMCEQRAWDLTIKVDKAGSAEVWRGNLEQAELYHEQLFSKGLTMAPIEKT
F, Y, W, L	PS371: ClpS protein, SEQ ID NO: 4 (protein) MATETIERPRTRDPGSGLGGHWLVIVLNDDHNTFDHVAKTLARVIPGVTVDDGYRFADQIHQRGQAIVWRGPKEPAEHYWEQLQDAGLSMAPLERH
F, Y, W	PS415: ClpS protein, SEQ ID NO: 38 (protein) MALPETRTKIKPDVNIKEPPNYRVIYLNDDKTSMEFVIGSLMQHFSYPQQQAVEKTEEVHEHGSSTVAVLPYEMAEQKGIEVTLDARAEGFPLQVKIEPAER
F, Y, W	PS423: ClpS protein, SEQ ID NO: 46 (protein) MAPTPAGAAVLDKQQQRRHKHASRYRVLLHNDPVNTMEYVVESLRQVVPQLSEQDAIAVMVEAHNTGVGLVIVCDIEPAEFYCEQLKTKGLTSSIEPED
